The values below come from publication PMC6168351 (Molecular cancer therapeutics, 2018).

The assay deals with Human GPA33 (Novoprotein), recombinant (Homo sapiens (Human)., UniProt Q99795). In words: SPR.
Chain of Human GPA33 (Novoprotein), recombinant (Q99795 22-235): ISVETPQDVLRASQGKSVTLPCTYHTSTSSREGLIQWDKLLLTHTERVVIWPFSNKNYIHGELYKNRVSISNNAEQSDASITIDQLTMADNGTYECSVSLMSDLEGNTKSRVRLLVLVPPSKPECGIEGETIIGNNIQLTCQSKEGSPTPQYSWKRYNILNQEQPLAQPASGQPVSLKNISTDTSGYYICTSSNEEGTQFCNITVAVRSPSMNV

B1: huA33 (humanized A33 antibody, selected clone), IgG1 (antibody, V domains shown)
VH: EVQLVESGGGLVKPGGSLRLSCAASGFAFSTYDMSWVRQAPGKRLEWVATISSGGSYTYYLDSVKGRFTISRDNAKNSLYLQMNSLRAEDTAVYYCAPTTVVPFAYWGQGTLVTVSS
VL: DIQMTQSQSSLSTSVGDRVTITCKASQNVRTVVAWYQQKPGKSPKTLIYLASNRHTGVPSRFSGSGSGTEFTLTISNVQPEDFADYFCLQHWSYPLTFGSGTKLEIK
Regarding B1, the Kd was 0.13 nM.
